Assay: TEM / cryo-TEM imaging of self-assembled nanostructures (dimensions)
Format: physicochemical
Experimental: About 200 μM stock solutions of corresponding TTs in water were prepared by dissolution of the lyophilized powders. After aging overnight, TEM samples were prepared by depositing 7 μL of the appropriate solution onto a carbon-coated copper grid (Electron Microscopy Services, Hatfield, Pa., USA), wicking away the excess solution with a small piece of filter paper. Next, 7 μL of a 2 wt % uranyl acetate aqueous solution was deposited on the surface for 30 seconds, wicking away the excess solution with filter paper. The grids were then air-dried overnight at room temperature prior to imaging. Bright-field TEM imaging was performed using an FEI Tecnai 12 TWIN Transmission Electron Microscope operated at an acceleration voltage of 100 kV. All TEM images were acquired by a SIS Megaview III wide-angle CCD camera or 16 bit 2K×2K FEI Eagle bottom mount camera.
Cryo-TEM imaging was performed using higher sample concentrations of 800 μM (compared with 200 μM for conventional TEM imaging). Extended imaging times can result in damage to the vitreous ice film caused by the electron beam and so higher concentrations can allow a more rapid visualization that reduces this likelihood. About 6 μL of the appropriate solution was dropped onto a lacey carbon-film-supported TEM copper grid (Electron Microscopy Services, Hatfield, Pa., USA). All the TEM grids used for cryo-TEM imaging were pretreated with plasma air to render the lacey carbon film hydrophilic. A thin film of the sample solution was produced using a Vitrobot with a controlled humidity chamber (FEI). After loading of the sample solution, the lacey carbon grid was blotted using preset parameters and plunged instantly into a liquid ethane reservoir precooled by liquid nitrogen. The vitrified samples were then transferred to a cryo-holder and cryo-transfer stage that was cooled by liquid nitrogen. To prevent sublimation of vitreous water, the cryo-holder temperature was maintained below −170° C. during the imaging process. All images were recorded by a Tecnai 12 microscope with a cryo-holder, and the images were acquired by a 16 bit 2K×2K FEI Eagle bottom mount camera.
Self-Assembly of SAPDs from TT1. To study the self-assembly behavior of the SAPDs, we directly dissolved the lyophilized powders in deionized water at a concentration of 2 mM and neutral pH.

## CC[C@]1(OC(=O)OCCSSC[C@@H](NC(C)=O)C(=O)N[C@@H](CCCCNC(=O)[C@@H](CSSCCOC(=O)O[C@]2(CC)C(=O)OCc3c2cc2n(c3=O)Cc3cc4ccccc4nc3-2)NC(C)=O)C(=O)N[C@@H](CCCCNC(=O)CCOCCOCCOCCOCCOC)C(=O)N[C@@H](CCCCNC(=O)CCOCCOCCOCCOCCOC)C(N)=O)C(=O)OCc2c1cc1n(c2=O)Cc2cc3ccccc3nc2-1 [TT 1]
TT 1 nanotubes, TEM
  wall thickness measured from toroids: 3.0±0.5 nm
TT 1 nanotubes, toroids, TEM
  hollow interior diameter: 2.5±0.6 nm
Loaded with Coumarin 6, TEM
  nanotube diameter after loading: 9.8±1.4 nm
Loaded with IR 780, TEM
  nanotube diameter after loading: 10.2±0.9 nm
Loaded with Nile Red, TEM
  nanotube diameter after loading: 9.6±1.2 nm
Loaded with Rose Bengal lactone, TEM
  nanotube diameter after loading: 10.7±1.4 nm
paclitaxel-doped, 200 μM, TEM
  diameter of PTX-doped nanotubes: 10.6±0.9 nm
self-assembled nanotubes in water, 200 μM, n>40
  Diameters measured by conventional TEM: 8.8 ± 0.8 nm

Reference: patent US20220211858A1, “TUBULAR SUPRAMOLECULAR POLYMERS” (priority 2019, published 2022)
